± gives the uncertainty stated by the source.
Experiment: self-splicing fitness, log relative to wild type (ln ratio); higher = more splicing; Tetrahymena group I intron in knt gene, E. coli kanamycin selection, DiMSum; sequences stand for … in CUCUCU…GGAGGGAAAAGUUAUCAGGCAUGCACCUGGUAGCUAGUCUUUAAACCAAUAGAUUGCAUCGGUUUAAAAGGCAAGACCGUCAAAUUGCGGGAAAGGGGUCAACAGCCGUUCAGUACCAAGUCUCAGGGGAAACUUUGAGAUGGCCUUGCAAAGGGUAUGGUAAUAAGCUGACGGACAUGGUCCUAACCACGCAGCCAAGUCCUAAGUCAACAGAUCUUCUGUUGAUAUGGAUGCAGUUCACAGACUAAAUGUCGGUCGGGGAAGAUGUAUUCUUCUCAUAAGAUAUAGUCGGACCUCUCCUUAAUGGGAGCUAGCGGAUGAAGUGAUGCAACACUGGAGCCGCUGGGAACUAAUUUGUAUGCGAAAGUAUAUUGAUUAGUUUUGGAGUACUCGUGGUCG
Procedure, shortened: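 DiMSum derived fitness as the error-weighted combination of fold changes across replicates, kanamycin versus no kanamycin, normalised to wild type. E. coli BL21(DE3) held the library, which randomised all eight P1ex-region intron nucleotides within the knt kanamycin-resistance gene on pET-22b(+). Six replicate transformations grew overnight at 37°C or 30°C on LB agar with or without 25 μg/mL kanamycin, also containing 100 μg/mL carbenicillin, 50 μM IPTG and 0.2% rhamnose, and pooled colonies were amplicon-sequenced on an Illumina HiSeq 2500.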

Row | Sequence | self-splicing fitness (ln) (30 °C) | self-splicing fitness (ln) (37 °C)
1 | GAUGAGCAAUAUUACGAGUG | -3.06 ± 0.17 | -0.833 ± 0.18
2 | GAUGAGCAAUAUUACGAUAG | -3.33 ± 0.16 | -2.42 ± 0.17
3 | GAUGAGCAAUAUUACGCAGC | – | -1.61 ± 0.41
4 | GAUGAGCAAUAUUACGCCCU | -1.75 ± 0.15 | -1.4 ± 0.17
5 | GAUGAGCAAUAUUACGCCGG | – | -2.46 ± 0.45
6 | GAUGAGCAAUAUUACGCUAG | – | -1.33 ± 0.39
7 | GAUGAGCAAUAUUACGGGCG | -3.36 ± 0.39 | -1.45 ± 0.26
8 | GAUGAGCAAUAUUACGGGGC | -3.24 ± 0.33 | -2.28 ± 0.23
9 | GAUGAGCAAUAUUACGUAAA | -3.81 ± 0.17 | -1.37 ± 0.15
10 | GAUGAGCAAUAUUACGUACC | -0.53 ± 0.35 | -1.77 ± 0.44
11 | GAUGAGCAAUAUUACGUCAA | -3.32 ± 0.28 | -3.44 ± 0.37
12 | GAUGAGCAAUAUUACGUCAC | -3.62 ± 0.4 | -2.47 ± 0.26
13 | GAUGAGCAAUAUUACGUCGG | – | -2.87 ± 0.34
14 | GAUGAGCAAUAUUACGUGGA | -2.47 ± 0.21 | -2.5 ± 0.22
15 | GAUGAGCAAUAUUACGUUAA | -2.39 ± 0.32 | –
16 | GAUUAGCAAUAUUACGAGAC | -1.51 ± 0.3 | -1.1 ± 0.22
17 | GAUUAGCAAUAUUACGAGCU | -1.23 ± 0.088 | -0.791 ± 0.16
18 | GAUUAGCAAUAUUACGAGUC | -3.17 ± 0.27 | -2.58 ± 0.33
19 | GAUUAGCAAUAUUACGCAUU | -2.53 ± 0.14 | -2.25 ± 0.17
20 | GAUUAGCAAUAUUACGCCUA | -0.405 ± 0.092 | 0.169 ± 0.095
21 | GAUUAGCAAUAUUACGCGAU | -3.61 ± 0.37 | -1.27 ± 0.44
22 | GAUUAGCAAUAUUACGGCGA | -1.12 ± 0.11 | -0.219 ± 0.11
23 | GAUUAGCAAUAUUACGGCUC | 0.285 ± 0.096 | 0.441 ± 0.12
24 | GAUUAGCAAUAUUACGGGCG | -1.63 ± 0.15 | -1.33 ± 0.17
25 | GAUUAGCAAUAUUACGGUAC | -2.14 ± 0.37 | -0.994 ± 0.22

Row | Sequence | self-splicing fitness (ln) (30 °C) | self-splicing fitness (ln) (37 °C)
26 | GAUUAGCAAUAUUACGGUGC | -1.8 ± 0.34 | -1.4 ± 0.32
27 | GAUUAGCAAUAUUACGGUUC | -3.38 ± 0.18 | -1.96 ± 0.23
28 | GAUUAGCAAUAUUACGGUUG | -1.43 ± 0.12 | -1.02 ± 0.15
29 | GAUUAGCAAUAUUACGUCCG | -1.73 ± 0.25 | -2.61 ± 0.41
30 | GAUUAGCAAUAUUACGUCUA | -1.14 ± 0.095 | -0.229 ± 0.085
31 | GAUUAGCAAUAUUACGUCUC | -1.24 ± 0.33 | -0.965 ± 0.32
32 | GAUUAGCAAUAUUACGUGGU | -2.61 ± 0.18 | -2.47 ± 0.2
33 | GCAAAGCAAUAUUACGAAAG | -2.86 ± 0.19 | -1.94 ± 0.21
34 | GCAAAGCAAUAUUACGAAGA | -1.88 ± 0.18 | -2.45 ± 0.23
35 | GCAAAGCAAUAUUACGAGCA | -2.04 ± 0.095 | -0.394 ± 0.08
36 | GCAAAGCAAUAUUACGAUAC | -1.69 ± 0.1 | -0.587 ± 0.14
37 | GCAAAGCAAUAUUACGAUCA | -1.4 ± 0.12 | -0.882 ± 0.11
38 | GCAAAGCAAUAUUACGCACU | -0.557 ± 0.078 | 0.031 ± 0.092
39 | GCAAAGCAAUAUUACGCCCC | -0.913 ± 0.19 | -0.135 ± 0.31
40 | GCAAAGCAAUAUUACGCUAC | -2.2 ± 0.16 | -2.09 ± 0.26
41 | GCAAAGCAAUAUUACGGAAU | -2.6 ± 0.1 | -0.938 ± 0.11
42 | GCAAAGCAAUAUUACGGAGA | -2.82 ± 0.45 | –
43 | GCAAAGCAAUAUUACGGGAA | -2.43 ± 0.1 | -0.474 ± 0.081
44 | GCAAAGCAAUAUUACGGGUA | -1.55 ± 0.11 | -0.7 ± 0.097
45 | GCAAAGCAAUAUUACGGUUG | -2.86 ± 0.13 | -2.04 ± 0.16
46 | GCAAAGCAAUAUUACGUACU | -0.928 ± 0.067 | 0.299 ± 0.095
47 | GCAAAGCAAUAUUACGUCAG | -3.89 ± 0.29 | -1.56 ± 0.16
48 | GCAAAGCAAUAUUACGUCUG | -2.54 ± 0.11 | -1.69 ± 0.085
49 | GCAAAGCAAUAUUACGUGAU | -0.863 ± 0.053 | -0.973 ± 0.075
50 | GCAAAGCAAUAUUACGUGUA | -0.807 ± 0.071 | -0.701 ± 0.074

Row | Sequence | self-splicing fitness (ln) (30 °C) | self-splicing fitness (ln) (37 °C)
51 | GCAAAGCAAUAUUACGUUCG | -1.51 ± 0.08 | -0.192 ± 0.12
52 | GCAAAGCAAUAUUACGUUCU | -1.44 ± 0.094 | -0.638 ± 0.097
53 | GCACAGCAAUAUUACGAACA | -1.42 ± 0.11 | -0.85 ± 0.1
54 | GCACAGCAAUAUUACGAAGG | -1.31 ± 0.065 | -0.444 ± 0.096
55 | GCACAGCAAUAUUACGAGCA | -1.55 ± 0.11 | -0.832 ± 0.12
56 | GCACAGCAAUAUUACGAUCG | -1.08 ± 0.05 | -0.27 ± 0.069
57 | GCACAGCAAUAUUACGCAUA | -0.997 ± 0.088 | -0.269 ± 0.085
58 | GCACAGCAAUAUUACGCCUU | -0.943 ± 0.092 | -0.623 ± 0.087
59 | GCACAGCAAUAUUACGCGAA | -0.472 ± 0.066 | 0.308 ± 0.071
60 | GCACAGCAAUAUUACGCGCU | -2.39 ± 0.22 | -1.1 ± 0.19
61 | GCACAGCAAUAUUACGGGCA | -1.84 ± 0.11 | -0.886 ± 0.094
62 | GCACAGCAAUAUUACGGUAU | -0.511 ± 0.038 | 0.102 ± 0.059
63 | GCACAGCAAUAUUACGUCGU | -0.704 ± 0.083 | 0.241 ± 0.091
64 | GCACAGCAAUAUUACGUGGA | -0.386 ± 0.064 | -0.281 ± 0.065
65 | GCACAGCAAUAUUACGUGGU | -3.37 ± 0.12 | -1.82 ± 0.097
66 | GCACAGCAAUAUUACGUGUA | -1.03 ± 0.052 | -0.512 ± 0.056
67 | GCACAGCAAUAUUACGUGUG | -3.68 ± 0.16 | -2.22 ± 0.14
68 | GCACAGCAAUAUUACGUUGA | -0.837 ± 0.071 | -0.158 ± 0.072
69 | GCAGAGCAAUAUUACGAAAU | -4.35 ± 0.29 | -2.79 ± 0.26
70 | GCAGAGCAAUAUUACGACAA | -1.8 ± 0.46 | -0.677 ± 0.43
71 | GCAGAGCAAUAUUACGAGCG | -2.33 ± 0.29 | -1.41 ± 0.23
72 | GCAGAGCAAUAUUACGAUUA | -2.28 ± 0.22 | 0.0469 ± 0.18
73 | GCAGAGCAAUAUUACGAUUC | -2.56 ± 0.26 | -0.2 ± 0.22
74 | GCAGAGCAAUAUUACGCAAA | -3.37 ± 0.38 | –
75 | GCAGAGCAAUAUUACGCAGA | -2.78 ± 0.42 | -2.22 ± 0.34

Row | Sequence | self-splicing fitness (ln) (30 °C) | self-splicing fitness (ln) (37 °C)
76 | GCAGAGCAAUAUUACGCCUU | – | -2.46 ± 0.33
77 | GCAGAGCAAUAUUACGCGAG | -3.58 ± 0.35 | -2.46 ± 0.28
78 | GCAGAGCAAUAUUACGCUAC | – | -1.68 ± 0.32
79 | GCAGAGCAAUAUUACGCUUG | -3.5 ± 0.21 | -2.83 ± 0.31
80 | GCAGAGCAAUAUUACGGAGU | -3.24 ± 0.2 | -2.05 ± 0.27
81 | GCAGAGCAAUAUUACGGGUU | -3.83 ± 0.3 | -2.6 ± 0.3
82 | GCAGAGCAAUAUUACGGUCG | -3.23 ± 0.12 | -1.44 ± 0.1
83 | GCAGAGCAAUAUUACGUCUA | -2.7 ± 0.23 | -2.57 ± 0.24
84 | GCAGAGCAAUAUUACGUCUG | -3.95 ± 0.33 | -3.13 ± 0.47
85 | GCAGAGCAAUAUUACGUGAC | -2.91 ± 0.12 | -1.54 ± 0.11
86 | GCAGAGCAAUAUUACGUGGA | -2.94 ± 0.4 | -3.35 ± 0.39
87 | GCAGAGCAAUAUUACGUGUA | -3.61 ± 0.35 | -1.17 ± 0.16
88 | GCAGAGCAAUAUUACGUGUU | -4.35 ± 0.3 | -2.42 ± 0.18
89 | GCAGAGCAAUAUUACGUUCC | – | -1.51 ± 0.29
90 | GCAGAGCAAUAUUACGUUCU | -2.78 ± 0.24 | -2.18 ± 0.29
91 | GCAGAGCAAUAUUACGUUGA | -2.53 ± 0.2 | -2.15 ± 0.25
92 | GCAUAGCAAUAUUACGAAGA | -2 ± 0.23 | -0.497 ± 0.16
93 | GCAUAGCAAUAUUACGAUGC | -2.72 ± 0.28 | –
94 | GCAUAGCAAUAUUACGCAUG | -3.79 ± 0.23 | -2.12 ± 0.19
95 | GCAUAGCAAUAUUACGCCUC | -1.01 ± 0.23 | -0.756 ± 0.28
96 | GCAUAGCAAUAUUACGCGCG | -1.06 ± 0.079 | -0.259 ± 0.092
97 | GCAUAGCAAUAUUACGCUAG | -2.24 ± 0.3 | -1.82 ± 0.23
98 | GCAUAGCAAUAUUACGCUCC | -1.61 ± 0.17 | -1.94 ± 0.31

— the supplement of paper PMC7877785
